Reference: patent US20200270586A1
Read-outs that look alike come from different tables or passages of the source. Each block holds one binder with its values, some of them ahead of it.

Legend:
Settings in all cases: modification not given
[1] = target: LgTrip 3546 (with His tag; SEQ ID NO: 51); test: luminescence complementation; SmTrip9 Kd
[2] = target: LgTrip 3546 (with His tag; SEQ ID NO: 51); test: luminescence complementation; SmTrip9 Kd; remark: listed apart in the source
[3] = target: LgTrip 3546 (with His tag; SEQ ID NO: 51); test: luminescence complementation; SmTrip9 Kd; remark: listed apart in the source
[4] = target: LgTrip 3546 (with His tag; SEQ ID NO: 51); test: luminescence complementation
[5] = target: LgTrip 3546 (with His tag; SEQ ID NO: 51); test: luminescence complementation; SmTrip9 Kd; remark: listed apart in the source
[6] = target: LgTrip 3546 (with His tag; SEQ ID NO: 51); test: luminescence complementation; remark: listed apart in the source
[7] = target: LgTrip 3546 (with His tag; SEQ ID NO: 51); test: luminescence complementation; SmTrip9 Kd; remark: listed apart in the source
[8] = target: LgTrip 3546 (with His tag; SEQ ID NO: 51); test: luminescence complementation; remark: listed apart in the source
[9] = target: LgTrip 3546 (with His tag; SEQ ID NO: 51)
[10] = target: LgTrip 3546 (with His tag; SEQ ID NO: 51); test: luminescence complementation; remark: listed apart in the source
[11] = target: LgTrip 3546 (with His tag; SEQ ID NO: 51); test: luminescence complementation; SmTrip9 Kd; remark: listed apart in the source
[12] = target: LgTrip 3546 (with His tag; SEQ ID NO: 51); test: luminescence complementation; remark: listed apart in the source
[13] = target: LgTrip 3546 (with His tag; SEQ ID NO: 51); remark: listed apart in the source

Chain of LgTrip 3546 (with His tag; SEQ ID NO: 51) (chain, as listed by the source): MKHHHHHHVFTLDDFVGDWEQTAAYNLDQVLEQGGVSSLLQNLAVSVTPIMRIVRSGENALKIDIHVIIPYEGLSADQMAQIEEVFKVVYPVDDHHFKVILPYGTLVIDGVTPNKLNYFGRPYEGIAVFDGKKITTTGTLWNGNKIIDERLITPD

B1: 758 (peptide)
chain: DKLLFTVTIEKWK
Kd [1]: 190 nM | Kd [2]: 520 nM

B2: 745 (peptide)
chain: DKMLFTVTIQKWK
Kd [3]: 300 nM | Kd [1]: 200 nM | Kd [4]: 160 nM

B3: 759 (peptide)
chain: DKLLFTVTIEKYK
Kd [5]: 330 nM | Kd [1]: 560 nM

B8: 622 (peptide)
chain: GKMLFRVTIESWK
Kd [10]: 2880 nM | Kd [4]: 7240 nM

B9: 756 (peptide)
chain: DKLLFTVTIQKWK
Kd [11]: 480 nM | Kd [1]: 950 nM

B10: 668 (peptide)
chain: GKMLFRVTIGKWK
Kd [12]: 60 nM | Kd [4]: 130 nM

B11: 428 (peptide)
chain: SSKRGSMLFRVTIWSV
Kd [13]: 40 nM

Results, then the binder that gave them:

Kd [6]: 20 nM | Kd [4]: 60 nM
B4: 671 (peptide)
chain: GKMLFRVTIQKWK

Kd [7]: 360 nM | Kd [1]: 190 nM
B5: 757 (peptide)
chain: DKLLFTVTIQKYK

Kd [8]: 120 nM | Kd [4]: 190 nM
B6: 620 (peptide)
chain: GKMLFRVTINSYK

Kd [9]: 520 nM
B7: 302 (peptide)
chain: SSWKRMLFRVTINSVS
